The values that follow come from paper PMC8478808 (Stroke, 2021).

In this assay the target is T1, recombinant mouse CD200R1 Fc chimera (mouse, UniProt Q9ES57 26-238).
T1 sequence (looked up): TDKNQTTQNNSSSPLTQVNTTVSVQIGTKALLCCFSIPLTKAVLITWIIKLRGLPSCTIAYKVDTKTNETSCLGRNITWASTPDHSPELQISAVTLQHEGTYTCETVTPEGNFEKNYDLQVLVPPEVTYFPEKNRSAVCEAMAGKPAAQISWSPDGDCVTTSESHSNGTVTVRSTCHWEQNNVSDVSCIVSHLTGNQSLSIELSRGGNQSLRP
The assay can be described thus: ELISA. On the technique in general: ELISA stands for enzyme-linked immunosorbent assay.

B1: biotinylated recombinant mouse CD200-Fc Chimera (carrier-free) (Fc fusion, UniProt O54901 31-232, looked up)
chain: QVEVVTQDERKALHTTASLRCSLKTSQEPLIVTWQKKKAVSPENMVTYSKTHGVVIQPAYKDRINVTELGLWNSSITFWNTTLEDEGCYMCLFNTFGSQKVSGTACLTLYVQPIVHLHYNYFEDHLNITCSATARPAPAISWKGTGTGIENSTESHFHSNGTTSVTSILRVKDPKTQVGKEVICQVLYLGNVIDYKQSLDKG
modifications: biotin (biotinylated; site not stated)
Regarding B1, the binding result is on record as “binds”.
